Source: patent US20220153847A1 (Chugai, published 2022)

T1: HLA-DQ2.5 on HLA-DQ2.5-positive PBMC B cells (human, UniProt P01909 24-254; P01920 33-261)
T1 construct: whole, on cells; also called HLA-DQ2.5+ PBMC B cell
T1 MHC II alpha: not shown
T1 MHC II beta: not shown


Experiments:
[1] = target: T1, HLA-DQ2.5 on HLA-DQ2.5-positive PBMC B …; experiment: FACS, PBMC B cells; IC17=0%, DQN0139bb//IC17=100%
[2] = target: T2, HLA-DQ2.5/omega 1 gliadin peptide complex on Ba/F3 cells (human); experiment: FACS, Ba/F3 cells; IC17=0%, DQN0139bb//IC17=100%;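 further: flow cytometry binding of anti-HLA-DQ antibodies at 5 µg/mL, incubated 30 min at room temperature with Ba/F3 lines presenting HLA-DQ/peptide complexes; antibody tested at 5 microgram/mL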
T2 construct: whole, on cells; also called Ba/F3-HLA-DQ2.5/omega 1 gliadin; HLA-DQ2.5/w1 gliadin
Text: (§1) The binding of anti-HLA-DQ antibodies to Ba/F3-HLA-DQ2.5, Ba/F3-HLA-DQ2.2, Ba/F3-HLA-DQ7.5, Ba/F3-HLA-DQ8, Ba/F3-HLA-DQ5.1, Ba/F3-HLA-DQ6.3, Ba/F3-HLA-DQ7.3, Ba/F3-HLA-DR, Ba/F3-HLA-DP, Ba/F3-HLA-DQ2.5/CLIP, Ba/F3-HLA-DQ2.5/HBV, Ba/F3-HLA-DQ2.5/Salmonella, Ba/F3-HLA-DQ2.5/TPO, Ba/F3-HLA-DQ2.5/M. bovis, Ba/F3-HLA-DQ2.5/alpha 1 gliadin, Ba/F3-HLA-DQ2.5/alpha 2 gliadin, Ba/F3-HLA-DQ2.5/gamma 1 gliadin, Ba/F3-HLA-DQ2.5/gamma 2 gliadin, Ba/F3-HLA-DQ2.5/omega 1 gliadin, Ba/F3-HLA-DQ2.5/omega 2 gliadin, Ba/F3-HLA-DQ2.5/BC hordein, Ba/F3-HLA-DQ2.5/alpha 3 gliadin, Ba/F3-HLA-DQ2.5/alpha 1b gliadin, Ba/F3-HLA-DQ2.5/gamma 4b gliadin, Ba/F3-HLA-DQ2.5/avenin 1, Ba/F3-HLA-DQ2.5/avenin 2, Ba/F3-HLA-DQ2.5/avenin 3, Ba/F3-HLA-DQ2.5/hordein 1, Ba/F3-HLA-DQ2.5/hordein 2, Ba/F3-HLA-DQ2.5/secalin 1, Ba/F3-HLA-DQ2.5/secalin 2, Ba/F3-HLA-DQ2.5/14mer 1, Ba/F3-HLA-DQ2.5/33mer gliadin, Ba/F3-HLA-DQ2.5/26mer gliadin, was tested. 5 microgram/mL of each of the anti-HLA-DQ antibodies was incubated with each cell line for 30 minutes at room temperature and washed with FACS buffer (2% FBS, 2 mM EDTA in PBS).

[3] = target: T3, HLA-DQ2.5/CLIP peptide complex on Ba/F3 cells (human); experiment: FACS, Ba/F3 cells; IC17=0%, DQN0139bb//IC17=100%;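 further: flow cytometry binding of anti-HLA-DQ antibodies at 5 µg/mL, incubated 30 min at room temperature with Ba/F3 lines presenting HLA-DQ/peptide complexes; antibody tested at 5 microgram/mL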
T3 construct: whole, on cells; also called Ba/F3-HLA-DQ2.5/CLIP
T3 sequence (P04233 96-124, chain 2 of 2, other chains not shown): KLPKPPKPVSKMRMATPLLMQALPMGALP
Text: as §1

[4] = target: T4, HLA-DQ2.5/secalin 1 peptide complex on Ba/F3 cells (human); experiment: FACS, Ba/F3 cells; IC17=0%, DQN0139bb//IC17=100%;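 further: flow cytometry binding of anti-HLA-DQ antibodies at 5 µg/mL, incubated 30 min at room temperature with Ba/F3 lines presenting HLA-DQ/peptide complexes; antibody tested at 5 microgram/mL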
T4 construct: whole, on cells; also called Ba/F3-HLA-DQ2.5/secalin 1
Text: as §1

[5] = target: T5, HLA-DQ2.5/alpha 3 gliadin peptide complex on Ba/F3 cells (human); experiment: FACS, Ba/F3 cells; IC17=0%, DQN0139bb//IC17=100%;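 further: flow cytometry binding of anti-HLA-DQ antibodies at 5 µg/mL, incubated 30 min at room temperature with Ba/F3 lines presenting HLA-DQ/peptide complexes; antibody tested at 5 microgram/mL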
T5 construct: whole, on cells; also called Ba/F3-HLA-DQ2.5/alpha 3 gliadin; HLA-DQ2.5/a3 gliadin
Text: as §1

[6] = target: T6, HLA-DQ2.5/avenin 2 peptide complex on Ba/F3 cells (human); experiment: FACS, Ba/F3 cells; IC17=0%, DQN0139bb//IC17=100%
T6 construct: whole, on cells; also called Ba/F3-HLA-DQ2.5/avenin 2
Text: as §1

[7] = target: T7, HLA-DQ2.5/gamma 1 gliadin peptide complex on Ba/F3 cells (human); experiment: FACS, Ba/F3 cells; IC17=0%, DQN0139bb//IC17=100%
T7 construct: whole, on cells; also called Ba/F3-HLA-DQ2.5/gamma 1 gliadin; HLA-DQ2.5/g1 gliadin
Text: as §1

[8] = target: T8, HLA-DQ2.5/avenin 1 peptide complex on Ba/F3 cells (human); experiment: FACS, Ba/F3 cells; IC17=0%, DQN0139bb//IC17=100%
T8 construct: whole, on cells; also called Ba/F3-HLA-DQ2.5/avenin 1
Text: as §1

[9] = target: T9, HLA-DQ2.5/gamma 2 gliadin peptide complex on Ba/F3 cells (human); experiment: FACS, Ba/F3 cells; IC17=0%, DQN0139bb//IC17=100%
T9 construct: whole, on cells; also called Ba/F3-HLA-DQ2.5/gamma 2 gliadin; HLA-DQ2.5/g2 gliadin
Text: as §1

[10] = target: T10, HLA-DQ2.5/BC hordein peptide complex on Ba/F3 cells (human); experiment: FACS, Ba/F3 cells; IC17=0%, DQN0139bb//IC17=100%
T10 construct: whole, on cells; also called Ba/F3-HLA-DQ2.5/BC hordein
Text: as §1

[11] = target: T11, HLA-DQ2.5/alpha 2 gliadin peptide complex on Ba/F3 cells (human); experiment: FACS, Ba/F3 cells; IC17=0%, DQN0139bb//IC17=100%
T11 construct: whole, on cells; also called Ba/F3-HLA-DQ2.5/alpha 2 gliadin; HLA-DQ2.5/a2 gliadin
Text: as §1

[12] = target: T12, HLA-DQ2.5/gamma 4b gliadin peptide complex on Ba/F3 cells (human); experiment: FACS, Ba/F3 cells; IC17=0%, DQN0139bb//IC17=100%
T12 construct: whole, on cells; also called Ba/F3-HLA-DQ2.5/gamma 4b gliadin; HLA-DQ2.5/g4b gliadin
Text: as §1

[13] = target: T13, HLA-DQ2.5/alpha 1b gliadin peptide complex on Ba/F3 cells (human); experiment: FACS, Ba/F3 cells; IC17=0%, DQN0139bb//IC17=100%
T13 construct: whole, on cells; also called Ba/F3-HLA-DQ2.5/alpha 1b gliadin; HLA-DQ2.5/a1b gliadin
Text: as §1

[14] = target: T14, HLA-DQ2.5/secalin 2 peptide complex on Ba/F3 cells (human); experiment: FACS, Ba/F3 cells; IC17=0%, DQN0139bb//IC17=100%
T14 construct: whole, on cells; also called Ba/F3-HLA-DQ2.5/secalin 2
Text: as §1

[15] = target: T15, HLA-DQ2.5/hordein 2 peptide complex on Ba/F3 cells (human); experiment: FACS, Ba/F3 cells; IC17=0%, DQN0139bb//IC17=100%
T15 construct: whole, on cells; also called Ba/F3-HLA-DQ2.5/hordein 2
Text: as §1

[16] = target: T16, HLA-DQ2.5/omega 2 gliadin peptide complex on Ba/F3 cells (human); experiment: FACS, Ba/F3 cells; IC17=0%, DQN0139bb//IC17=100%
T16 construct: whole, on cells; also called Ba/F3-HLA-DQ2.5/omega 2 gliadin; HLA-DQ2.5/w2 gliadin
Text: as §1

[17] = target: T17, HLA-DQ2.5/14mer 1 peptide complex on Ba/F3 cells (human); experiment: FACS, Ba/F3 cells; IC17=0%, DQN0139bb//IC17=100%
T17 construct: whole, on cells; also called Ba/F3-HLA-DQ2.5/14mer 1
Text: as §1

[18] = target: T18, HLA-DQ2.5/avenin 3 peptide complex on Ba/F3 cells (human); experiment: FACS, Ba/F3 cells; IC17=0%, DQN0139bb//IC17=100%
T18 construct: whole, on cells; also called Ba/F3-HLA-DQ2.5/avenin 3
Text: as §1

[19] = target: T19, HLA-DQ2.5/alpha 1 gliadin peptide complex on Ba/F3 cells (human); experiment: FACS, Ba/F3 cells; IC17=0%, DQN0139bb//IC17=100%
T19 construct: whole, on cells; also called Ba/F3-HLA-DQ2.5/alpha 1 gliadin; HLA-DQ2.5/a1 gliadin
Text: as §1

[20] = target: T20, HLA-DQ2.5/26mer gliadin peptide complex on Ba/F3 cells (human); experiment: FACS, Ba/F3 cells; IC17=0%, DQN0139bb//IC17=100%
T20 construct: whole, on cells; also called Ba/F3-HLA-DQ2.5/26mer gliadin
Text: as §1

[21] = target: T21, HLA-DQ2.5/hordein 1 peptide complex on Ba/F3 cells (human); experiment: FACS, Ba/F3 cells; IC17=0%, DQN0139bb//IC17=100%
T21 construct: whole, on cells; also called Ba/F3-HLA-DQ2.5/hordein 1
Text: as §1

Row | Binder | % MFI [1] [%] | % MFI [2] [%] | % MFI [3] [%] | % MFI [4] [%] | % MFI [5] [%] | % MFI [6] [%] | % MFI [7] [%] | % MFI [8] [%] | % MFI [9] [%] | % MFI [10] [%] | % MFI [11] [%] | % MFI [12] [%] | % MFI [13] [%] | % MFI [14] [%] | % MFI [15] [%] | % MFI [16] [%] | % MFI [17] [%] | % MFI [18] [%] | % MFI [19] [%] | % MFI [20] [%] | further results
1 | DQN0344xx//DQN0385ee (bispecific antibody, human IgG1, kappa) heavy 1: QSLEESGGGLVKPGGTLTLTCTASGFSFSSSYWMCWVRQAPGKGLEWVACVYGGSDTTYYASWTKGRFTISKGSSTTVALQVTSLTAADTATYFCARDPLNYYYYGELNLWGPGTLVTVSSASTKGPSVFPLAPSSKSTSGGTAALGCLVKDYFPEPVTVSWNSGALTSGVHTFPAVLQSSGLYSLSSVVTVPSSSLGTQTYICNVNHKPSNTKVDKRVEPKSCDKTHTCPPCPAPELRRGPSVFLFPPKPKDTLMISRTPEVTCVVVDVSHEDPEVKFNWYVDGVEVHNAKTKPREEQYNSTYRVVSVLTVLHQDWLNGKEYKCKVSNKALPAPIEKTISKAKGQPREPQVYTLPPSREEMTKNQVSLTCLVKGFYPSDIAVEWESNGQPENNYKTTPPYLDSDGSFFLYSKLTVDKSRWQQGNVFSCSVMHEALHNHYTQESLSLSP light 1: AVVLTQTASPVSAAVGGTVTIRCQATENIYSGLAWYQQKPGQPPKVLIYYVSTLASGVPSRFKGSGSGTEYTLTISGVQCDDAATYYCQTYHDISNVTFGGGTKVEIKRTVAAPSVFIFPPSDEQLKSGTASVVCLLNNFYPREAKVQWKVDNALQSGNSQESVTEQDSKDCTYSLSSTLTLSKADYEKHKVYACEVTHQGLSSPVTKSFNRGEC heavy 2: QEQLEESGGDLVKPGASLTLTCTASGFSFYSSYWICWVRQAPGKGLEWIACIDTGSGSIDYASWVNGRFTISKTSSTTVTLQMTSLTVADTATYFCARDIGIDYNFWGPGTLVTVSSASTKGPSVFPLAPSSKSTSGGTAALGCLVKDYFPEPVTVSWNSGALTSGVHTFPAVLQSSGLYSLSSVVTVPSSSLGTQTYICNVNHKPSNTKVDKRVEPKSCDKTHTCPPCPAPELRRGPSVFLFPPKPKDTLMISRTPEVTCVVVDVSHEDPEVKFNWYVDGVEVHNAKTKPREEQYNSTYRVVSVLTVLHQDWLNGKEYKCKVSNKALPAPIEKTISKAKGQPREPQVYTLPPSRKEMTKNQVSLTCLVKGFYPSDIAVEWESNGQPENNYKTTPPYLDSDGSFFLYSKLTVDKSRWQQGNVFSCSVMHEALHNHYTQKSLSLSP light 2: AFELTQTPSFVEAAVGGTVTIKCQATQSISSYLNWYQQKPGQPPKLLIYYASTLASGVPSRFKGSGSGTEFSLTISGVECADAATYYCHYGISYVSFGGGTKVEIKRTVAAPSVFIFPPSDEQLKSGTASVVCLLNNFYPREAKVQWKVDNALQSGNSQESVTEQDSKDCTYSLSSTLTLSKADYEKHKVYACEVTHQGLSSPVTKSFNRGEC | 0.4 | 40 | 1.8 | 33.6 | 36.4 | 26.6 | 29.4 | 29.1 | 4.6 | 63.5 | 52.3 | 31.1 | 61.9 | 43.5 | 92.2 | 71.5 | 27.6 | 15.6 | 58.1 | 61.8 | % MFI [21]: 28%
2 | DQN0385ee//IC17 (bispecific antibody, human IgG1, kappa) heavy 1: QEQLEESGGDLVKPGASLTLTCTASGFSFYSSYWICWVRQAPGKGLEWIACIDTGSGSIDYASWVNGRFTISKTSSTTVTLQMTSLTVADTATYFCARDIGIDYNFWGPGTLVTVSSASTKGPSVFPLAPSSKSTSGGTAALGCLVKDYFPEPVTVSWNSGALTSGVHTFPAVLQSSGLYSLSSVVTVPSSSLGTQTYICNVNHKPSNTKVDKRVEPKSCDKTHTCPPCPAPELRRGPSVFLFPPKPKDTLMISRTPEVTCVVVDVSHEDPEVKFNWYVDGVEVHNAKTKPREEQYNSTYRVVSVLTVLHQDWLNGKEYKCKVSNKALPAPIEKTISKAKGQPREPQVYTLPPSREEMTKNQVSLTCLVKGFYPSDIAVEWESNGQPENNYKTTPPYLDSDGSFFLYSKLTVDKSRWQQGNVFSCSVMHEALHNHYTQESLSLSP light 1: AFELTQTPSFVEAAVGGTVTIKCQATQSISSYLNWYQQKPGQPPKLLIYYASTLASGVPSRFKGSGSGTEFSLTISGVECADAATYYCHYGISYVSFGGGTKVEIKRTVAAPSVFIFPPSDEQLKSGTASVVCLLNNFYPREAKVQWKVDNALQSGNSQESVTEQDSKDCTYSLSSTLTLSKADYEKHKVYACEVTHQGLSSPVTKSFNRGEC heavy 2: QVQLQQSGPQLVRPGASVKISCKASGYSFTSYWMHWVNQRPGQGLEWIGMIDPSYSETRLNQKFKDKATLTVDKSSSTAYMQLSSPTSEDSAVYYCALYGNYFDYWGQGTTLTVSSASTKGPSVFPLAPSSKSTSGGTAALGCLVKDYFPEPVTVSWNSGALTSGVHTFPAVLQSSGLYSLSSVVTVPSSSLGTQTYICNVNHKPSNTKVDKRVEPKSCDKTHTCPPCPAPELRRGPSVFLFPPKPKDTLMISRTPEVTCVVVDVSHEDPEVKFNWYVDGVEVHNAKTKPREEQYNSTYRVVSVLTVLHQDWLNGKEYKCKVSNKALPAPIEKTISKAKGQPREPQVYTLPPSRKEMTKNQVSLTCLVKGFYPSDIAVEWESNGQPENNYKTTPPYLDSDGSFFLYSKLTVDKSRWQQGNVFSCSVMHEALHNHYTQKSLSLSP light 2: DIQMTQSSSSFSVSLGDRVTITCKASEDIYNRLAWYQQKPGNAPRLLISGATSLETGVPSRFSGSGSGKDYTLSITSLQTEDVATYYCQQYWSTPYTFGGGTKLEVKRTVAAPSVFIFPPSDEQLKSGTASVVCLLNNFYPREAKVQWKVDNALQSGNSQESVTEQDSKDSTYSLSSTLTLSKADYEKHKVYACEVTHQGLSSPVTKSFNRGEC | 0.3 | 17.2 | 1.3 | 11.8 | 20.9 | 8.3 | 26 | 4 | 3.4 | 68.1 | 85.6 | 32.4 | 19.2 | 34.4 | 98.3 | 75.2 | 23.3 | 0.2 | 6 | 70.5 | % MFI [21]: 24.7%
